Laboratory results taken from patent US20110190477A1 (G2 INFLAMMATION, published 2011).

Assays:
Assay in all cases: flow cytometry on transiently transfected L1.2 cells
[1] = molecular target: T1, chimeric receptor 2. mHHH (mouse; human, UniProt P30993 1-39)
T1 construct: range 1-39; Transiently expressed on mouse L1.2 cells
T1 sequence: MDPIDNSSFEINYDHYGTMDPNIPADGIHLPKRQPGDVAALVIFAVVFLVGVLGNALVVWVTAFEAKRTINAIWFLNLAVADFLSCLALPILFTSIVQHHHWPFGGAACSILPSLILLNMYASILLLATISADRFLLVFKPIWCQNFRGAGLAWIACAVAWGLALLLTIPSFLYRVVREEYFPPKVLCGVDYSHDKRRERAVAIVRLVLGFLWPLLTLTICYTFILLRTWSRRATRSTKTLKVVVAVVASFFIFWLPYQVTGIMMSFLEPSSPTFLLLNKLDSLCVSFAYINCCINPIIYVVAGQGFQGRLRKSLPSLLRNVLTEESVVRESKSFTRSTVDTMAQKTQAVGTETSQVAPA
Method: (§1) A series of chimeric receptors comprising segments of mouse and human C5aR were constructed to identify the region of the C5a receptor that the antibodies bound. […] Each recombinant vector (5 μg diluted in DMEM) encoding a different chimeric receptor was transfected into 5×10⁵ mouse L1.2 cells using Lipofectamine 2000 (Invitrogen). Cells were grown in DMEM or RPMI (Invitrogen) plus 10% foetal bovine serum (Hyclone). After 24 hours or 48 hours, cells were harvested by centrifugation at 1,500 rpm for 5 min and resuspended in FACS buffer (phosphate buffered saline plus 2% bovine serum albumin). For staining with hAb-Q, 0.5×10⁵ transfected cells were incubated with 5 or 10 μg/ml antibody in a volume of 50 μl per well at 4° C. for 20 minutes. Cells were pelleted as above and rinsed 3 times with 150 μl FACS buffer before addition of 50 μl FITC-conjugated anti-human IgG diluted 1:200 or 1:300 (Sigma, F1641). This mix was incubated for 20 min at 4° C. before cells were pelleted, washed with FACS buffer 3 times and finally resuspended in 150-200 μl FACS buffer. Samples were analysed on a FACS Calibur (BD Biosciences).
(§2) To confirm that the humanised antibody hAb-Q, which was derived from mouse mAb 7F3 by CDR grafting, and therefore should contain the same antigen-binding site, had the same staining pattern as 7F3, transiently transfected cells expressing the different chimeric human/mouse C5aR were stained with hAb-Q and analysed by flow cytometry. The pattern of staining by hAb-Q was identical to that observed with 7F3. There was no staining by the secondary antibody (anti-hIgG-FITC) alone.

[2] = molecular target: T2, chimeric receptor 11. mmHm (mouse; human, UniProt P30993 1-111; P30993 264-351, limits assumed)
T2 construct: Transiently expressed on mouse L1.2 cells
T2 sequence: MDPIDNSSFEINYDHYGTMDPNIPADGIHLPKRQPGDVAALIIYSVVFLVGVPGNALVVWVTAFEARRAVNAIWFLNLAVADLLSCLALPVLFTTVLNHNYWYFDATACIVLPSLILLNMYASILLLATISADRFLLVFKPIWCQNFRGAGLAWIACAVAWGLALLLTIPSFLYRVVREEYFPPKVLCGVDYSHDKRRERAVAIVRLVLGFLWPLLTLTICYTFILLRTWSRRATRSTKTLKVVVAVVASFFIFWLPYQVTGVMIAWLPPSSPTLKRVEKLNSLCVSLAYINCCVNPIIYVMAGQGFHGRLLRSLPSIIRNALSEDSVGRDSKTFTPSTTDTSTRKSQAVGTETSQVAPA
Method: as §1, §2

[3] = molecular target: T3, chimeric receptor 6. HmHH (human; mouse, UniProt P30993 93-111)
T3 construct: range 93-111; Transiently expressed on mouse L1.2 cells
T3 sequence: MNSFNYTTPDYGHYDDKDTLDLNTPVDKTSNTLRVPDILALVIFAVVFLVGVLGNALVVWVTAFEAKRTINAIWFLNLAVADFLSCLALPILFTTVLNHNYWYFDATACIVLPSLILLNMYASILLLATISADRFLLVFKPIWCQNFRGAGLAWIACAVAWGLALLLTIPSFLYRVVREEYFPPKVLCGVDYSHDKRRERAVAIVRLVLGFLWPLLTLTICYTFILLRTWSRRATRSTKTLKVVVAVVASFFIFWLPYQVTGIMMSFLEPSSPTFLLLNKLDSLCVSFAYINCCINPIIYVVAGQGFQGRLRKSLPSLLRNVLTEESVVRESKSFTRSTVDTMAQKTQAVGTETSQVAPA
Method: as §1, §2

[4] = molecular target: T4, chimeric receptor 1. HHHH (human, UniProt P21730 1-350)
T4 construct: Transiently expressed on mouse L1.2 cells
T4 chain: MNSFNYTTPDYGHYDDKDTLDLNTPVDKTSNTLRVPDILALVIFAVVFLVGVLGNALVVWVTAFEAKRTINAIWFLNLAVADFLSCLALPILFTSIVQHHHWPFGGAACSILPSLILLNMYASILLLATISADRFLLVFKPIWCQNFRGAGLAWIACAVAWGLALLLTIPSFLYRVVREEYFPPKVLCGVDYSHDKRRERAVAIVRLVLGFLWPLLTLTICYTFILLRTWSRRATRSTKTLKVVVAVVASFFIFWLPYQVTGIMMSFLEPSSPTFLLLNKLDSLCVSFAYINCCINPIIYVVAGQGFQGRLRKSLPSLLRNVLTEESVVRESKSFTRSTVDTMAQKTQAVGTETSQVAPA
Method: as §1, §2

[5] = molecular target: T5, chimeric receptor 3. mmHH (mouse; human, UniProt P30993 1-111)
T5 construct: range 1-111; Transiently expressed on mouse L1.2 cells
T5 sequence: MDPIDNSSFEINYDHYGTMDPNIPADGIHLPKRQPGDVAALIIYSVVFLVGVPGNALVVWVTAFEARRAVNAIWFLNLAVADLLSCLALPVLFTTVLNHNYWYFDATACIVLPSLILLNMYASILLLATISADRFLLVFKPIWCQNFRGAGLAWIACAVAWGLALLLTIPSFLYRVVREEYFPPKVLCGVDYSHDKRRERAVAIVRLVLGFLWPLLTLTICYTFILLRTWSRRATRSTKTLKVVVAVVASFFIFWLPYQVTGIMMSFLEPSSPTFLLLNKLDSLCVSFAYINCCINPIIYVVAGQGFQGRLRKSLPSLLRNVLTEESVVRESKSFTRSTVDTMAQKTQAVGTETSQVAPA
Method: as §1, §2

Measured: binding result

B1: humanized anti-C5aR antibody hAb-Q (antibody, human IgG4 S228P, kappa)
light: DVVMTQSPLSLPVTLGEPASISCRSSQSLVHSNGNTYLHWYLQKPGQSPQLLIYKVSNRFSGVPDRFSGSGSGTDFTLKISRVEAEDVGVYFCSQSTLVPLTFGQGTKLEIKRTVAAPSVFIFPPSDEQLKSGTASVVCLLNNFYPREAKVQWKVDNALQSGNSQESVTEQDSKDSTYSLSSTLTLSKADYEKHKVYACEVTHQGLSSPVTKSFNRGEC
heavy: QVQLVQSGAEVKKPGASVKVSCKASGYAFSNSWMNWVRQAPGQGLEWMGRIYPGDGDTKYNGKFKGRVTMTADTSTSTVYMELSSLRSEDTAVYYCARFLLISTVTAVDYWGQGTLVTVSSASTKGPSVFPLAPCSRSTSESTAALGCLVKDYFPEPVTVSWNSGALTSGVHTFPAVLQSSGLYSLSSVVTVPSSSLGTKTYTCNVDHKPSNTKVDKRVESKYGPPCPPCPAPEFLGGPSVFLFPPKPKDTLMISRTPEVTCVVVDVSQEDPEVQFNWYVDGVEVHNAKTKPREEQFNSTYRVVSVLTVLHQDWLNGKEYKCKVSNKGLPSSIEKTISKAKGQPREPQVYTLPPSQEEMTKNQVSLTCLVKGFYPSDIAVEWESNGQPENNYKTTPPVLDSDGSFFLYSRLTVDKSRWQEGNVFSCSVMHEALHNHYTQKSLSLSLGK
notes: IgG4 with the Ser228Pro mutation; also called antibody Q; anti-C5aR ab
binds: all assays above
